B1: Nuclear receptor subfamily 0 group B member 2 (Homo sapiens), Q15466 (parent)
chain: MSTSQPGACPCQGAASRPAILYALLSSSLKAVPRPRSRCLCRQHRPVQLCAPHRTCREALDVLAKTVAFLRNLPSFWQLPPQDQRRLLQGCWGPLFLLGLAQDAVTFEVAEAPVPSILKKILLEEPSSSGGSGQLPDRPQPSLAAVQWLQCCLESFWSLELSPKEYACLKGTILFNPDVPGLQAASHIGHLQQEAHWVLCEVLEPWCPAAQGRLTRVLLTASTLKSIPTSLLGDLFFRPIIGDVDIAGLLGDMLLLR

Variants of: B1
Settings: with mdm2_human MDM2, Q00987
Sequence of mdm2_human MDM2, Q00987 (Q00987 whole entry, looked up): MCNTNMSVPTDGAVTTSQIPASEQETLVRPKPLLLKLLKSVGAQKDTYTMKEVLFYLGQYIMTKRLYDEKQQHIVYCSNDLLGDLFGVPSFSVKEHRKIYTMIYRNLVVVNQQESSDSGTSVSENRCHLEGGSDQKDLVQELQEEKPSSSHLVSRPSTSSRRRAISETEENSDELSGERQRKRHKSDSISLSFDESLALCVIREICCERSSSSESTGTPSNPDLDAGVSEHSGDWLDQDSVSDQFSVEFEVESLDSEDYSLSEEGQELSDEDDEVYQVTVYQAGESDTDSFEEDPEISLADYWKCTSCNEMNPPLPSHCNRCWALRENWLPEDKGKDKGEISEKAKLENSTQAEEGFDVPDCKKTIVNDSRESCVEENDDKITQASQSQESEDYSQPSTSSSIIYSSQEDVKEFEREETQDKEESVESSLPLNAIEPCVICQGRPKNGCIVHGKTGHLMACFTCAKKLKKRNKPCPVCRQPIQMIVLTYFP

Variant | effect of a mutation on the interaction
K170N | increasing interaction

Variants of: B1
Settings: with mdm2_human MDM2, Q00987
Remark: another data set of the same source

Variant | effect of a mutation on the interaction
K170R | disrupting interaction

Source: IntAct's records for PubMed 22575647
